From article PMC6754071

Test system: T1, PolR (Microlunatus phosphovorus NM-1), ORF:57668f7d
T1 sequence: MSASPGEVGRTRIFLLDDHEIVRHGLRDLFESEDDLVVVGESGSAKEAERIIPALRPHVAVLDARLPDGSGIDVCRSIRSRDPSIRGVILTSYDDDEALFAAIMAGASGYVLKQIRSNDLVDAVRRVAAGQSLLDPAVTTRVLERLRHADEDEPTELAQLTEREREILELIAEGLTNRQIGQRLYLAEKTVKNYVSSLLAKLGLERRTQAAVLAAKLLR
Assay: EMSA
Settings: EMSA: 3.0 ug His-PolR, 1.0 ug poly(dI-dC), 8% native PAGE, buffer not given (cites Zhang 2014); footprinting: 30 min room temperature, DNase I 1 min 25 C

Row | Sequence | binding
1 | AGACGAGTGCTGCCGTGCACCGACTTCGCATCGGCGCCGCAACACAGTCCCCGCCCGTCGTTCGCTCGGCGTTCACCGGCGGGCCCTCGAGTCGTCAGAATGGCTGCCTAGCGTCTGGACCGGAGCCAGTGTCGCTCCTTACGTTCATTGCACGAGTCACACTCCGACAAGGGGAACGAGTGAAGAT (double strand) [pstS (MLP_RS23035) promoter] | binds
2 | ATTTGCAGCACTCCGTTCGCCGATTTGCAGCAGGCTTCTGTTCCGTGTGGTCCCCCGACCCAGGGGACCACGGAAACAACTGCGCAGCCCCCGCCCGAGGATCACCCGGAATCTTCCCCCAGGTTTGCCCTGACCCACAGAGGACGCCGCGGGACGAAGTCAACTTCAGCGTACGGTGGAGCACA (double strand) [ppgk (MLP_RS02595) promoter] | no binding
3 | CAGTTCACAGTCGCGATACTAGGTCGTAAGCCCGCCTCAAGTTGCCGCTCATGGGGTCGCCACACGCAGCTACAGGGAGGGTTCGGGCTGAGTTCACCCCTCGTTCACATCCGAACTTCGCCAGCCGGTCCATTTCGGGCATAGGCTCGAAGTCGAGCTTTTCTGATCAATCCCGAGGAATCC (double strand) [phoU (MLP_RS22885) promoter] | no binding
4 | GACAGCGATCACGGAGATCAGTAGCCAGTCCATGATTGATCTTCCCCTTGCACGGTCAACAACGACAACCCAATCGTCGTGCCATGAGATGGTCGGCCACACGGGTCTTTCGGCTCTATCTGGTCCTTCCTTCGTCACCGGGAGGGCCCGCCGCCGTTCACCCACCGTTCACTGTGCTGGTCG (double strand) [pit (MLP_RS00235) promoter] | binds
5 | TCAGCCATCTGGACAACCTATCGTCCACACCACACGAGATAGCCGAGTTGGTCAGGTATTGATGCGAGTTGGGGTCGAACGTCCCGTCAGATCCGGTTCGAACGCATCACCTTTGAGTGAAGGCTCATCCGACAACGGGGATCAGCACACTCCTAG (double strand) [ppk (MLP_RS23025) promoter] | binds
6 | TCGCTCTCGGTGTTGATCGATCCGGAGCGCCCGTCCAGACCCTGCACCGATCCGTCGAGGGTCGAGACGAAGTTGCTCCGGACGACCGGTCCGGAGCCGCCTTCGGGCCAGCGATAGAGATCGATCAGGTCTGCTCGGCTGAGCTCGGCGGATGGTCGAGGGTCCGCGTG (double strand) [pap (MLP_RS11265) promoter] | no binding
7 | TCGTCTCGGCAGCCCTTGGGTGAACTGTTCTCCGAGCGTGAGTAACGCCTCCGGGCGAGCGAGATGAACTGTTCGTGAATCCGCCGCCCGGGGGCCGTTCCAGGTGGATTTGACCGGTTTCGGAACCCCACGATGGTCGCGTGACCGAAGCTC (double strand) [pit (MLP_RS14415) promoter] | no binding
8 | TGTGTCCCTTCCGTGAAACCTCGTCGGTGAAGTCTGGTGCGGGCGAGGGGAATCCCGCCCGGAGGGGAGGCTAAACCACCCAGGAGAATGAATGGAGTGTGGTGGCGCCTCGCGAGAATCCGAGCCGCTTCGGCGGATCGGCGCCCGAGGCTCCCTCCGGTGACAGCACGTTCACCCTGCC (double strand) [ppgk (MLP_RS12905) promoter] | binds
9 | TTCGACCTCCGTATTCGGCTATTCGACTGTCCACCCTCTTCGTTACCACCGAGGGAGACACGTCACATTCACAACTCCCGGTCTGCGGATCAGACCAGCGATGCTGTCCGTGACTGCGGAAAGCTGACGACCGGAGACTGAGCGCCGGGGACCCGTTAACCCATTGTTCGCCCGGCA (double strand) [ppk2 (MLP_RS02760) promoter] | no binding
